Test results as given in paper doi:10.1101/2022.02.10.479912 (bioRxiv, 2022).
Values belong to the binder of their own block, whether it stands above or below them.

What was measured:
[1] = biological target: T1, human Interleukin-18 (mature) (human, UniProt Q14116 37-193); test: SEC-MALLS
T1 sequence (looked up): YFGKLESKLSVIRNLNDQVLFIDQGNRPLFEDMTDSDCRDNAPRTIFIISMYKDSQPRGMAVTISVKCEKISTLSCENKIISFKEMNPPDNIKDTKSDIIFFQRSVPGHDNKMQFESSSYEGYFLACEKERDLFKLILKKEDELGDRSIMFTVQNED

[2] = biological target: T1, human Interleukin-18 (mature); test: ITC

binding result [1]: binds
B1: human IL-18BP truncated at the N-terminus (residues 63-194), endogenously glycosylated, without Endo H treatment (domain or fragment, UniProt O95998 63-194, looked up)
chain: QCPALEVTWPEVEVPLNGTLSLSCVACSRFPNFSILYWLGNGSFIEHLPGRLWEGSTSRERGSTGTQLCKALVLEQLTPALHSTNFSCVLVDPEQVVQRHVVLAQLWAGLRATLPPTQEALPSSHSSPQQQG
modifications: N-linked Man5GlcNAc2 glycans, not trimmed (no Endo H)

binding result [2]: binds
B2: human IL-18BP truncated at the N-terminus (residues 63-194) treated with Endoglycosidase H (domain or fragment, UniProt O95998 63-194, looked up)
chain: B1 chain
modifications: N-glycans trimmed by Endo H; N-Acetylglucosamine (GlcNAc) at Asn79, Asn103 and Asn147 in the crystal structure
